Data reported in patent US20160280788A1, “USE OF ANTIBODIES AGAINST ICAM-1 IN THE TREATMENT OF PATIENTS WITH RELAPSED CANCER” (BioInvent International AB, priority 2010, published 2016).
“Also recorded” adds a separate entry of the source.

How the values were obtained:
[1] = tested on: RPMI-8226 myeloma cells; assay: Subcutaneous myeloma xenograft, RPMI-8226; format: in vivo, scid mice; conditions: 2 mg/kg twice weekly i.p.; vs control IgG1
Experimental: (§1) Antibody treatment with 2 mg/kg BI-505 or control IgG1 was started at Day 1 and was continued on a twice-weekly intraperitoneal dosing regimen. Mice were sacrificed when tumor sizes reached the ethical limit.

[2] = tested on: OPM-2 myeloma cells; assay: Subcutaneous myeloma xenograft, OPM-2 (ICAM-1 negative); format: in vivo, scid mice; conditions: 2 mg/kg twice weekly i.p.; ICAM-1 negative cell line
Experimental: as §1

[3] = Mouse serum antibody levels by ELISA at end of xenograft experiment; format: in vivo; conditions: mouse serum at end of experimentation
Experimental: We next performed a dose-titration experiment to establish IgG B11 in vivo potency and the minimal dose achieving maximal anti-tumor activity, using the scid/ARH-77 model system. […] Mouse serum antibody trough concentrations were determined by ELISA at the end of experimentation. Trough antibody concentrations were then plotted against percent of maximal in vivo anti-tumour activity, and against percent of maximal ICAM-1 receptor occupancy and tumour cell PCD at corresponding antibody concentrations in vitro (FIGS. 3C, 3D, 3E, 3F and 3G). Strikingly, a near perfect correlation between antibody concentration and in vitro tumour cell receptor occupancy, in vitro tumor cell PCD, and in vivo anti-tumour activity was observed, consistent with ICAM-1 dependent direct cell cytotoxicity underlying in vivo anti-tumour activity.

[4] = target: T1, mouse FcγRIV (Mus musculus, UniProt A0A0B4J1G0); assay: Biacore binding of BI-505 isotype variants to mouse FcγRIV
T1 construct: made in house; host or cells: HEK293E (transient)
T1 sequence (A0A0B4J1G0 21-249): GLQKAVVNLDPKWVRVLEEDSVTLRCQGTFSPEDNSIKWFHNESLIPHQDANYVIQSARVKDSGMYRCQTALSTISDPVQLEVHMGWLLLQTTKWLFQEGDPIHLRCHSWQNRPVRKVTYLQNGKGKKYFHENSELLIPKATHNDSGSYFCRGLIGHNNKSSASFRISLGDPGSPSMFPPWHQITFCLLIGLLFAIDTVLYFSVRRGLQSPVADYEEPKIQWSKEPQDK
Experimental: His-tagged human FcγRIIIa or mouse FcγRIV were expressed transient in adherent HEK293E cells, purified using Ni-NTA chromatography and characterized using SDS-PAGE and/or Biacore. Surface plasmon resonance (SPR) measurements were perfomed using a Biacore 3000 instrument. Goat α-human-F(ab)′2 F(ab)′2 fragment (Jackson laboratories) was immobilised with a CM-5 chip using a standard amine coupling protocol. IgG1 B11, Iga4 B11, or 297Q B11 were diluted to 15 and 60 μg/mL respectively and added to the surface at […] for 3 min. His tagged human FcγRIIIa or mouse FcγRIV were pre-incubated with an α-HIS antibody (R&D Systems) at a 2:1 molar ratio before addition to the chip surface, […], 1 min. After each cycle the surface was regenerated twice with glycine buffer pH 1.7.

[5] = tested on: Daudi lymphoma cells; assay: Programmed cell death (PCD) assay, Daudi; format: cell-based, human
Experimental: Target cells were seeded in 96-well culture plates at a density of 2×10^6 cells/mL culture medium. […] The cells were then incubated for 16 hours at 37° C. in a humidified atmosphere of 5% CO2. The cells were harvested and stained for Annexin V-488/Propidium Iodide (Invitrogen, Sweden) and analysed using flow cytometer (FACS Calibur, BD Bioscience).

[6] = tested on: HUVEC and HMVEC endothelial cells; assay: PCD in normal endothelial cells; format: cell-based; conditions: resting or activated (IFN-γ) cells
Experimental: (§2) Target cells were seeded in 96-well culture plates at a density of 2×10^6 cells/mL culture medium. Titrated concentrations of IgG1 B11 or different negative and positive control antibodies were added to the cells, in the absence or presence of anti-human Fab fragment (Jackson ImmunoResearch) for cross-linking. The cells were then incubated for 16 hours at 37° C. in a humidified atmosphere of 5% CO2. The cells were harvested and stained for Annexin V-488/Propidium Iodide (Invitrogen, Sweden) and analysed using flow cytometer (FACS Calibur, BD Bioscience).

[7] = tested on: peripheral blood B cells; assay: PCD in normal B cells; format: cell-based; conditions: resting or activated cells
Experimental: as §2

[8] = tested on: HUVEC, HMVEC or peripheral blood B cells; assay: CDC of normal ICAM-1 expressing cells; format: cell-based
Experimental: Target cells were harvested and incubated in RPMI medium with antibodies at 5 μg/mL or at titrated concentrations between 0.01-100 μg/mL for 60 min on ice. Cells were thereafter washed and resuspended in cold medium before dispension into flow cytometry tubes. Treatments were performed in triplicates. Human serum, normal or heat-inactivated, (Sigma, Sweden) was added to tubes and the samples were incubated for 2 h at 37° C. After completed incubation ToPo-Pro-3 was added at a final concentration of 0.3 μM and cells were analyzed for membrane permeabilization using flow cytometry.

[9] = target: recombinant human ICAM-1 (Homo sapiens, UniProt P05362); assay: ELISA on recombinant human ICAM-1, ICAM-2, ICAM-3; format: binding; conditions: vs ICAM-2, ICAM-3
Experimental: Antibody-specific bands were excised and subjected to tryptic digestion and analyzed by MALDI-TOF. The single band precipitated by BI-505 was identified as ICAM-1. The established identity of ICAM-1 was confirmed by blocking studies by up to 50-fold molar excess soluble recombinant ICAM-1 or VCAM. The MFI of BI-505 to PC-3 cells was determined by flow cytometry. Dashed line represents the negative control antibody and gray solid histogram represents the MFI of BI-505 with no preblocking. BI-505 was preblocked by recombinant VCAM or ICAM-1. […] Anti-ICAM-2 and α-ICAM-3 antibodies were used as positive controls to detect ICAM-2 and ICAM-3 respectively.

[10] = tested on: ARH-77 tumors; assay: Subcutaneous scid/ARH-77 xenograft, established (palpable tumor) model; conditions: IgG B11 even at 0.2 mg/kg (100-fold lower dose than rituximab)
Experimental: Mice were anaesthetized with a mixture of sevofluran and oxygen prior to myeloma cell inoculation and 1-5×10^6 myeloma cells were then subcutaneously injected in a volume of 100 μl into the left flank. Treatment with antibodies by intraperitonial (i.p.) injections was started either the day after cell inoculation (prophylactic model) or when tumors reached a size of approximately 100 mm^3 (established model). Antibodies were administrated in PBS in a total volume of 200 μL. Treatment with PBS or isotype control was used as control. Tumors were measured with a digital calliper and the tumor volumes were calculated according to formula: width^2×length×0.52. Animals were sacrificed when the tumor sizes reached the ethical limit of 1.5 cm. Surviving mice were sacrificed after a maximum of 5 months. Blood samples collected from the vena cava were centrifuged at 2500 g for 15 min to obtain serum and the samples were stored at −20° C. Tumors were removed for immunohistochemistry, snap frozen and were kept at −85° C.

Sequence of recombinant human ICAM-1 (P05362 28-532): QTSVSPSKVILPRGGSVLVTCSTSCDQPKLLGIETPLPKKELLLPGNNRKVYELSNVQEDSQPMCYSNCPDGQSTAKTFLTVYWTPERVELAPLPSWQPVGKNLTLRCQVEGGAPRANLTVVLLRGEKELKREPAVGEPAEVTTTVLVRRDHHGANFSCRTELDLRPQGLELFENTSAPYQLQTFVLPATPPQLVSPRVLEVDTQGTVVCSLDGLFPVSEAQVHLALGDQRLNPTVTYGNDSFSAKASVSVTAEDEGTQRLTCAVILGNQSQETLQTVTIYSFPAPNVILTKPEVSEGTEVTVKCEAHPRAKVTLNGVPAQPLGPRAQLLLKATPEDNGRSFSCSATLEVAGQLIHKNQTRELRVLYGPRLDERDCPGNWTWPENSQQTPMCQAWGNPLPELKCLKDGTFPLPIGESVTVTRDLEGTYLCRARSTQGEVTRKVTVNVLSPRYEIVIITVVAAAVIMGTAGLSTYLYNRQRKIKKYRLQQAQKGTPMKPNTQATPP

B1: IgG B11: fully human ICAM-1 antibody isolated from the n-CoDeR library; VH/VL sequences in FIG. 15 (SEQ ID NOs 8, 10) (antibody, V domains shown)
VH: EVQLLESGGGLVQPGGSLRLSCAASGFTFSNAWMSWVRQAPGKGLEWVAFIWYDGSNKYYADSVKGRFTISRDNSKNTLYLQMNSLRAEDTAVYYCARYSGWYFDYWGQGTLVTVSS
VL: QSVLTQPPSASGTPGQRVTISCTGSSSNIGAGYDVHWYQQLPGTAPKLLIYDNNNRPSGVPDRFSGSKSGTSASLAISGLRSEDEADYYCQSYDSSLSAWLFGGGTKLTVLG
modifications: B11 VH region; B11 VL region
Q: Which results are given for B1?
A: reduction of myeloma tumor growth [1]: 96%; tumor growth [2]: no effect on tumor growth; also recorded: did not affect tumor growth; In vivo IgG Levels (serum antibody titers) ([3]; dose 0.02 mg/kg): 0.06 ± 0.02 µg/mL; In vivo IgG Levels (serum antibody titers) ([3]; dose 0.2 mg/kg): 1.2 ± 0.4 µg/mL; In vivo IgG Levels (serum antibody titers) ([3]; dose 2 mg/kg): 20 ± 2.9 µg/mL; binding to murine FcγRIV [4]: strong binding; PCD induction ([5]; antibody immobilised by either of two coating protocols): induced programmed cell death; PCD induction ([5]; titrated antibody with cross-linking, 16 hours): dose dependent PCD-induction; PCD induction in normal endothelial cells [6]: did not, however, induce PCD; PCD induction in normal B cells [7]: did not, however, induce PCD; CDC of normal cells [8]: did not confer ADCC or CDC; specificity for ICAM-1 [9]: high specificity; animal survival [10]: prolonged animal survival; tumor growth [10]: significantly prevented tumor growth
